Assay: yeast display, Sf9 membrane polyspecificity reagent, FACS + sequencing; frameworks hold sequencing errors
How it was run: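 Galactose-induced (36–48 hours) yeast carrying a synthetic nanobody display library were exposed to 10% biotinylated, detergent-solubilized Sf9 membrane reagent at 4 °C for 1 hour. FACS followed streptavidin microbead enrichment, using low and high (top ~1%) gates for expression (anti-HA) and reagent binding (streptavidin). Colony PCR, MiSeq 2 × 250 sequencing and CDR-length filtering followed. Labels for polyreactivity reflect the gate of origin.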

Question: For “QVQLQESGGGLMQAGGSQRLSCAASGSISSYSDMGWYRQAPGKEREFVAGIGYGTTTNYADSVKGRFTTSRDNAKNTVYLQMISMKPEDTAVYYCAAYQGNGYEFYYWGQGTQVTVRS”, which “polyreactivity (PSR sort gate)” value is on record?
Answer: low polyreactivity

Question: With “QVQLVESGGGLVKAGGSLRLSCAASGLTFRVYAMGWYRQAPGKECELVATISRTGSTTYAESVQGRFTISRDNAKNTVYLQMNSLKPEDTAVYYCNARYYFLLWDSLAREYWGQGTQVTVTS” as the sequence, how does the “polyreactivity (PSR sort gate)” value read?
Answer: high polyreactivity

Question: Which “polyreactivity (PSR sort gate)” value does the source give for “QVQLVESGGGLVQAGGSLRLSCAASGSTFVPNAMGWYRQAPGKERELVATINYADSVKGRFTISRDNAKNTVYLQMNSLKPEDTAVYYCATETAVYLVWGTALDYWGQGTQVTVSS” here?
Answer: low polyreactivity

Question: Which “polyreactivity (PSR sort gate)” value does the source give for “QVQLVESGGGLVQAGGSLRLSCAASGFTFNANARGWYRQAPGKEREVVAVITRSGGRTYYADSVKGRFTISRDNAKNTVYFQMNSLNPEDTAVYYCAKEGPSRVYQGTDCASDSWGHGTQVTVSS” here?
Answer: high polyreactivity

Question: Which “polyreactivity (PSR sort gate)” value does the source give for “QVQLVESGGGVVQAGGSLRLSCAASGRTFCIYAMGWYRPAPGKEREVVAAITGRGGSTHYADSVKGRFTISRDNAKNTVYLQMNSLKPEDTAVYYGAADYRYNRGITSNKDYDYWGQGTQVTVSS” here?
Answer: low polyreactivity

Question: Which “polyreactivity (PSR sort gate)” value does the source give for “QVHLVESGGGLVQAGGSLRLSCAASGRIFAWYAMGWYRQAPGKERELVAAITWGGGRTYYADSVKGRFTISRDNAKNTVYLQMNSLKPEDSAFYYCNRDFDDEMWGQGTQVTVSS” here?
Answer: low polyreactivity

Question: With “QVQLVESGGGLVQAGRSLRLSCAASGSILLYYTMGWYRQAPGKERELVASITSGGRTYYADSVKGRFTISRDNAKNTVYLQMNSLKPEDTAVYYCAADVWKLYDYWGQGTQVTVSS” as the sequence, how does the “polyreactivity (PSR sort gate)” value read?
Answer: low polyreactivity

Question: Which “polyreactivity (PSR sort gate)” value does the source give for “QDQLVESGGGLVQAGGSLRLSCAASGRNFSYYAMGWYRQAPGKERELVAAIRWSGGRTYYADSVKGRFTISRDNAKNTVYLQMNSLKPEDTAVYYCAAEGAYRLAYDSWGQGTQVTVSS” here?
Answer: high polyreactivity

Question: Which “polyreactivity (PSR sort gate)” value does the source give for “QVQLVESGGGLVQAGGSLRLSCAASGITPDYAMGWYRQAPGTERELVAAITWSGGRTYYADSVKGRFTISRDNAKNTVYLQMNSLKPEDTAVYYCAAEHYLGYDYWGQGTQVTVSS” here?
Answer: low polyreactivity

Question: For “QVQLVESGGGLVQAGGSLRLSCAASGYIFSTYTMGWYRQAPGKERELVATITVSGGSTYYADSVKGRFTISRDNAKNTVYLQMNSLKPEDTAVYYCAALRYTFAGRFDYWGQGTQVTVSS”, which “polyreactivity (PSR sort gate)” value is on record?
Answer: high polyreactivity

Question: Which “polyreactivity (PSR sort gate)” value does the source give for “QVQLVESGGGLVQAGGSLRLSCAASGRIFKHYAMGWSRQAPGKERELVAAITNGGRTNYADSVKGRFTISRDNAKNTVYLQMNSLKPADTAVYYGNSESSPPYSITKFDYWGQGTQVTVSS” here?
Answer: low polyreactivity

Question: With “QVQLVESGGGLVQAGGSLRLSCAASGRIFRYYAMGWYRQAPGKERELVAAIRSGGSTNYADSVKGRFTISRDNATNTVYLQLNSLKPEDTAVYYCNARYRYFKGGYWGQGTQVTVAS” as the sequence, how does the “polyreactivity (PSR sort gate)” value read?
Answer: high polyreactivity

Question: With “QVQLVESGGGLVQAGGSLRLSCAASGSTFSLYAMGWYRQAPGKERELVAAISWSDGSTYYADSVKGRFTISRDNAKNTVYLQMNSLKPEDTAVYYCAAESTVRPYEHSGDYWGQGTQVTVSS” as the sequence, how does the “polyreactivity (PSR sort gate)” value read?
Answer: low polyreactivity

Question: With “QVQLVESAGCLVQAGGSLRLSCAASGSTIYRYAMGWYRQAPGKERELVAAITRTGGSTYADSVKGRFTISRDNAKNSVFLQMNSLKPEDTAVFYCAVQRYYVSSISPFYYWGQGTQVTVSS” as the sequence, how does the “polyreactivity (PSR sort gate)” value read?
Answer: low polyreactivity

Question: Which “polyreactivity (PSR sort gate)” value does the source give for “QVQLVESGGGLVQAGGSLRLTCAASGSTFAYYAMRWYRQAPGTERELVAVINGITGSTYYADSVKGRFTISRDHAKNTVYLQMNSLKPEDTAVYYCNADYAVVTDEGDYWGQGTQVTVSS” here?
Answer: low polyreactivity

Question: Which “polyreactivity (PSR sort gate)” value does the source give for “QVQLVESGGGLVQAGGSLRLSCAASGRTFYKYAMGWYRQAPGKERELVAAISKSGGRTYYADSVKGRFTISRDNAKNTVYLQLNSLKPEDTAVYYCAAEPFIPDQSRYYYWGQGTQVTVSS” here?
Answer: high polyreactivity

Question: For “QVQLVESGGGLVQAGGSLRLSCAAYGSLFDSNAMGWYRQAPRKERELVAAITVSGTSTYYADSVNGRFTISRDNEKNTVYLQMNSLKPEYTEVYYCAAAQEYLTDHDYWGQGTQVTVSS”, which “polyreactivity (PSR sort gate)” value is on record?
Answer: low polyreactivity

Question: Which “polyreactivity (PSR sort gate)” value does the source give for “QVQLVESGGGLVQAGGSLRLSCAASGRTFWKYAMGWYRQAPGKERELVAAISSSGGNTYYADSVKGRFTISRDNAKNSVYLQMNSLKPEDTAVYYCAARLPRGAYYYWGQGTQVTVSS” here?
Answer: high polyreactivity

Question: Which “polyreactivity (PSR sort gate)” value does the source give for “QVQLVESGGGLVQAGGSLRLSCAASGSIFKYYAMGWYRKAPGKERELVAAISYRVGRTYYADSVKGRFTISRDNAKNTVYLQMNSLKPEDTAVYYCNTAYLSGQEYDYWGQGTQVTVSS” here?
Answer: high polyreactivity

Question: With “QVQLVESGGGLVQAGGSLRLSCAASGFTFDDYVMGWYRQAPGKERELVAAISRSGGSTYYADSVKGRFTISRDNAKNTVYLQMNSLKPEDTAVYYCAARTYSWGDWGQGTQVTVSS” as the sequence, how does the “polyreactivity (PSR sort gate)” value read?
Answer: high polyreactivity

Question: For “QVQLVESGGGLVQAGGSLRLSCAASGRTFSAYAMGWYRQAPGKERELVARITSVDSTNYADSVKGRFTISRDNAKNSVYLQMNSLKPEDTAVYDCNATFGYPFVDYDDYWGQGTQVTVSS”, which “polyreactivity (PSR sort gate)” value is on record?
Answer: low polyreactivity

Question: With “QVQLVESGGGLVQAGGSLRLSCAASGIILRRYAMGWYRQAPGKERELVAAISSRGGSTYYADSVKGRFTISRDNAKNTVYLQMNSLKPEDTAVYYCANRPYGRSGGSRYDYWGQGTQVTVSS” as the sequence, how does the “polyreactivity (PSR sort gate)” value read?
Answer: high polyreactivity

Question: With “QVQLVESGGGLVQAGGSLRLSCAASGSIFFYNAMGWYRQAPGKERELVAAISRGGSTYYADSVKGRFTISRDNAKNTVYLQMNSLKPEDTAVYYCAVQRRRNSNVLFDYWGQGTQVTVSS” as the sequence, how does the “polyreactivity (PSR sort gate)” value read?
Answer: high polyreactivity

Question: Which “polyreactivity (PSR sort gate)” value does the source give for “QVQLVESGGGLVQAGGSLRLSCAASGRIIYVKAMGWYRQAPGKERELVAAISSRGGTTYYADSVKGRFTISRDNAKNSVYLQMNSLKPEDTAVYYCNAGRVRHGNDYWGQGTQVTVSS” here?
Answer: high polyreactivity

Question: Which “polyreactivity (PSR sort gate)” value does the source give for “QVQLVESGGGLVQAGGSLRLSCAASGFTFWLYTMGWYRQAPGKERELVAAISWSGGSTYYADSVKGRFTISRDTAKNTVYLQMNSLKPEDTAVYYCNALYVGYYDSMGYWGQGTQVTVSS” here?
Answer: high polyreactivity

Question: With “QVQLVESGGGLVQAGGSLRLSCAASGGIFQGYTMGWYRQAPGKERELVAAISRRGGSTYYADSVKGRFTNSRDNAKNTVYLQMNSVKPEDTAVYYCAAGKPLQLPRYDYWGQGTQVTVSS” as the sequence, how does the “polyreactivity (PSR sort gate)” value read?
Answer: low polyreactivity

Question: For “QVQHVESGGGLVQAGGSLRLSCAASGITFVPNAMGWYRQAHGKERELVAAITSGDSTNYADSVKGRFTISRDNAKNTVYLQMNSLKPEDTAVYYCAADSWAQRPNQGRVSLHYYWGQGTLVTVSS”, which “polyreactivity (PSR sort gate)” value is on record?
Answer: low polyreactivity

Question: Which “polyreactivity (PSR sort gate)” value does the source give for “QVQLVESGGGLVQAGGSLRLSCAASGSIFRRYAMGWYRQAPGKERELVAGISSGGYTNYADSVKGRFTISRDNAKNTVYLQMNRLKPEDTAVYYCAAKQYRYVRYRPVDYWGQGTQVTVSS” here?
Answer: high polyreactivity

Question: With “QVQLVESGGGLVQAGGSLRLSCAASGFTFSRYAMGWYRQAPGKERELVAAITRGGSTNYADSVKGRFTISRDNAKNTVYLQMNSLKPEDTAVYYCAVRIRYSTNAYYYWGQGTQVTVSS” as the sequence, how does the “polyreactivity (PSR sort gate)” value read?
Answer: high polyreactivity

Question: For “QVQLVESGGGLVQAGGSLRLSCAASGRIFASYTMGWYRQAPGKETELVAAISWRGDGTYYADSVKGRFTISRDYAKNTVYLQMNSLKPEDTAVYYCAADYVYYYHEYDYWGQGTQVTVSS”, which “polyreactivity (PSR sort gate)” value is on record?
Answer: low polyreactivity

Question: Which “polyreactivity (PSR sort gate)” value does the source give for “QVQLVESGGGLVQAGGSLRLSCAASGITFGDYAMGWDRQAPGKERELVAGINWSGDGTYYSDSVKGRFTISRDNAKNTFYLQMNSLKPEDTAVYYCAAETFYDYGGYDYWGQGTQVTVSS” here?
Answer: low polyreactivity

Question: For “QVQLVESGGGLVQAGGSHRLSCAASGSTFGDYAMGWYRQAPGKERELVAAISVRGGSTYYADSVKGRFTISRDNAKNTVYLQMNSLKPVVTAVYYCNKDLYRYPGYDYWGQGTQVTVSS”, which “polyreactivity (PSR sort gate)” value is on record?
Answer: high polyreactivity

Source: the nanobody polyreactivity screen of Harvey et al. (2022)
